Holding throughout (experiment): radiolabeled-peptide inhibition, purified HLA-DR
Settings in all cases: remark: other sources report otherwise

The target of one test is T1, HLA-DR DRB1*0401 (human).
T1 chain 1: not shown
T1 chain 2: not shown

In a further test the target is T2, HLA-DR DRB1*0404 (human).
T2 chain 1: not shown
T2 chain 2: not shown

For the next test, the target named is T3, HLA-DR DRB1*1101 (human).
T3 chain 1: not shown
T3 chain 2: not shown

The next test deals with T4, HLA-DR DRB1*0101 (human).
T4 chain 1: not shown
T4 chain 2: not shown

Another test concerns the target HLA-DR DRB1*1501 (human).
A further test has as its target T5, HLA-DR DRB1*0701 (human).
T5 chain 1: not shown
T5 chain 2: not shown

The next test addresses T6, HLA-DR DRB4*0101 (human).
T6 chain 1: not shown
T6 chain 2: not shown

For the molecule SLTLQGLGISWLGLR [9019.0055], the IC50 with HLA-DR DRB1*0401 (human) is 143 nM; in the test with HLA-DR DRB1*0404 (human), 110 nM; with HLA-DR DRB1*1101 (human) it was 6310 nM; in the test with HLA-DR DRB1*0101 (human) it was 93 nM; in the test with HLA-DR DRB1*1501 (human) it was 50 nM; in the test with HLA-DR DRB1*0701 (human), 3100 nM. In the test with HLA-DR DRB4*0101 (human), this molecule came in with an IC50 of 22 nM.

The record behind these values is patent publication US20100310640A1.
